Source: paper PMC9871560, “Truncated-semaphorin3A is a potential regulatory molecule to restore immune homeostasis in immune-mediated diseases” (Frontiers in Pharmacology, 2022)

B1: Parental semaphorin3A (P-sema3A) (ligand, human, UniProt Q14563 21-771, looked up)
chain: NYQNGKNNVPRLKLSYKEMLESNNVITFNGLANSSSYHTFLLDEERSRLYVGAKDHIFSFDLVNIKDFQKIVWPVSYTRRDECKWAGKDILKECANFIKVLKAYNQTHLYACGTGAFHPICTYIEIGHHPEDNIFKLENSHFENGRGKSPYDPKLLTASLLIDGELYSGTAADFMGRDFAIFRTLGHHHPIRTEQHDSRWLNDPKFISAHLISESDNPEDDKVYFFFRENAIDGEHSGKATHARIGQICKNDFGGHRSLVNKWTTFLKARLICSVPGPNGIDTHFDELQDVFLMNFKDPKNPVVYGVFTTSSNIFKGSAVCMYSMSDVRRVFLGPYAHRDGPNYQWVPYQGRVPYPRPGTCPSKTFGGFDSTKDLPDDVITFARSHPAMYNPVFPMNNRPIVIKTDVNYQFTQIVVDRVDAEDGQYDVMFIGTDVGTVLKVVSIPKETWYDLEEVLLEEMTVFREPTAISAMELSTKQQQLYIGSTAGVAQLPLHRCDIYGKACAECCLARDPYCAWDGSACSRYFPTAKRRTRRQDIRNGDPLTHCSDLHHDNHHGHSPEERIIYGVENSSTFLECSPKSQRALVYWQFQRRNEERKEEIRVDDHIIRTDQGLLLRSLQQKDSGNYLCHAVEHGFIQTLLKVTLEVIDTEHLEELLHKDDDGDGSKTKEMSNSMTPSQKVWYRDFMQLINHPNLNTMDEFCEQVWKRDRKQRRQRPGHTPGNSNKWKHLQENKKGRNRRTHEFERAPRSV
notes: human parental semaphorin3A; Secreted into the medium; The preparation holds monomer (~95 kDa), dimer (~160 kDa) and ~70 kDa fragments from cleavage by furin; also called parental sema3A; original sema3A; source: HEK293, serum-free culture medium, purified (Ni-NTA agarose)
B2: Truncated-sema3A (T-sema3A) (domain or fragment, human, UniProt Q14563 21-516, looked up)
chain: NYQNGKNNVPRLKLSYKEMLESNNVITFNGLANSSSYHTFLLDEERSRLYVGAKDHIFSFDLVNIKDFQKIVWPVSYTRRDECKWAGKDILKECANFIKVLKAYNQTHLYACGTGAFHPICTYIEIGHHPEDNIFKLENSHFENGRGKSPYDPKLLTASLLIDGELYSGTAADFMGRDFAIFRTLGHHHPIRTEQHDSRWLNDPKFISAHLISESDNPEDDKVYFFFRENAIDGEHCGKATHARIGQICKNDFGGHRSLVNKWTTFLKARLICSVPGPNGIDTHFDELQDVFLMNFKDPKNPVVYGVFTTSSNIFKGSAVCMYSMSDVRRVFLGPYAHRDGPNYQWVPYQGRVPYPRPGTCPSKTFGGFDSTKDLPDDVITFARSHPAMYNPVFPMNNRPIVIKTDVNYQFTQIVVDRVDAEDGQYDVMFIGTDVGTVLKVVSIPKETWYDLEEVLLEEMTVFREPTAISAMELSTKQQQLYIGSTAGVAQLPLHR
notes: signal peptide in the construct; human semaphorin3A, amino acids 1-516 of the parental sema3A, with S257C to make an artificial disulfide dimerization site; Secreted into the medium; Without reducing agent it runs as a homodimer (~140 kDa double band) together with some monomer (~68 kDa); also called truncated semaphorin3A; source: HEK293 stably expressing (lentiviral vector NSPI), serum-free …

Assays:
[1] = target: the molecule itself; assay: SDS-PAGE without reducing agent, immunoblot; purified proteins on SDS-PAGE with or without dithiothreitol, immunoblotted with polyclonal goat anti-human sema3A; monomer to disulfide-linked dimer
[2] = target: B2; assay: ELISA; homemade ELISA; 5 ug/mL purified CD72 coated on a MaxiSorp plate overnight at 4 C; 0-25 ug/mL purified P- or T-sema3A added for 3 h at 4 C; detected with polyclonal goat anti-sema3A and anti-goat HRP; Kd from the one site total binding equation (GraphPad Prism); conditions: both partners purified
[3] = target: B1; assay: as above; conditions: both partners purified

Binder	stoichiometry N [1]	Kd [2]	Kd [3]
B1	2		
B2	2		
CD72 recombinant protein, extracellular part (amino acids 117-359) (domain or fragment, UniProt P21854 117-359, looked up, CD72, extracellular part, amino acids 117-359; source: HEK293 stably expressing (lentiviral vector NSPI), purified (Ni-NTA agarose)) RYLQVSQQLQQTNRVLEVTNSSLRQQLRLKITQLGQSAEDLQGSRRELAQSQEALQVEQRAHQAAEGQLQACQADRQKTKETLQSEEQQRRALEQKLSNMENRLKPFFTCGSADTCCPSGWIMHQKSCFYISLTSKNWQESQKQCETLSSKLATFSEIYPQSHSYYFLNSLLPNGGSGNSYWTGLSSNKDWKLTDDTQRTRTYAQSSKCNKVHKTWSWWTLESESCRSSLPYICEMTAFRFPD		~4.85 nM	~7.3 nM
